Test results from publication PMC8754659.

Target: SpyCas9 (Streptococcus pyogenes, UniProt Q99ZW2 1-1368)
Test: EMSA

Sequence of SpyCas9 (Q99ZW2 whole entry): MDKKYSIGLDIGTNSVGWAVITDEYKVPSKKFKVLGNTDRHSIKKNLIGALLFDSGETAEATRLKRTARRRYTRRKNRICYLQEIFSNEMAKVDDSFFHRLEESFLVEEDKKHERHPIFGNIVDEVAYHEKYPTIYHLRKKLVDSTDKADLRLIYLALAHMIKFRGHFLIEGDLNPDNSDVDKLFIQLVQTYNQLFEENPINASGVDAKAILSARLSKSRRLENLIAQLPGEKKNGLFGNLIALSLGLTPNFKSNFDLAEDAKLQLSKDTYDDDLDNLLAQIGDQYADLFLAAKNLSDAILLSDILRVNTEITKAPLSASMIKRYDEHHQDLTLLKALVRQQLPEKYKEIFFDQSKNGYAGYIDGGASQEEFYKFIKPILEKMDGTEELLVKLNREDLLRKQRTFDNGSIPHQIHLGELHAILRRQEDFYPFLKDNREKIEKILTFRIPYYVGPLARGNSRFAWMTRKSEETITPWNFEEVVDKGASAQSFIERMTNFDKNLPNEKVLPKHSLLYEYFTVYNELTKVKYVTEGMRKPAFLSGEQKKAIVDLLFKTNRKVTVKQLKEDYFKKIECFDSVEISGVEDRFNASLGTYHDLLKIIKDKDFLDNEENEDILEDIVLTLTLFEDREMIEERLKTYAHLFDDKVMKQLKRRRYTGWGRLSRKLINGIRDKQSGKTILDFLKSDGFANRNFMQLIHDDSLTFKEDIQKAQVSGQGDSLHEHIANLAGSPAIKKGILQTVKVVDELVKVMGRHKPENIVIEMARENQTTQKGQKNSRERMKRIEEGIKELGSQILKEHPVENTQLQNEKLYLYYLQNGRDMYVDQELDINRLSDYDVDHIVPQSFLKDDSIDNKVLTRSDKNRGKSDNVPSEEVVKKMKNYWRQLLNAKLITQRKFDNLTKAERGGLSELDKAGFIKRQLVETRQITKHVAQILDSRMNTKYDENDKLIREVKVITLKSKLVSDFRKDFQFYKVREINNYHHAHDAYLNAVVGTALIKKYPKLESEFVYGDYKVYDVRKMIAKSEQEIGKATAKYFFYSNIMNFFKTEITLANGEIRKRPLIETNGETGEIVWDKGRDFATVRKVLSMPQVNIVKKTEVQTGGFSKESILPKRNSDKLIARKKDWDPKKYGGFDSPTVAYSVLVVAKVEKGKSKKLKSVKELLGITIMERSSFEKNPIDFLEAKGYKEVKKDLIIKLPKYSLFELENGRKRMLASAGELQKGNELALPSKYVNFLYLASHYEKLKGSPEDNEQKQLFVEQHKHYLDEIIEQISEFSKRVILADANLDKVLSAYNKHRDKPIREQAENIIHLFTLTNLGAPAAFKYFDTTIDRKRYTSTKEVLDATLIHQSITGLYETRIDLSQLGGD

B1: sgRNA (20 nt spacer) + FAM target DNA 38 bp (mixed)
DNA 1: ATTGCCGTCAGGAAATTAGGTGCGCTTAGCTGGTATTG
DNA 2: CAATACCAGCTAAGCGCACCTAATTTCCTGACGGCAAT
  binding result: binds
